Assay results taken from patent US20070190024A1 (INSERM INSTITUT NATIONAL DE LA SANTE ET DE LA RECH, published 2007).
Substitutions are numbered along the chain they refer to. Names may count otherwise.

T1: murine IL-11Rα on 7TD1 cells (Class 1, low affinity sites; isolated IL-11Rα chains) (mouse, UniProt Q64385 24-432)
T1 construct: whole, on cells; also called 7TD1 Class 1 sites
T1 sequence (looked up): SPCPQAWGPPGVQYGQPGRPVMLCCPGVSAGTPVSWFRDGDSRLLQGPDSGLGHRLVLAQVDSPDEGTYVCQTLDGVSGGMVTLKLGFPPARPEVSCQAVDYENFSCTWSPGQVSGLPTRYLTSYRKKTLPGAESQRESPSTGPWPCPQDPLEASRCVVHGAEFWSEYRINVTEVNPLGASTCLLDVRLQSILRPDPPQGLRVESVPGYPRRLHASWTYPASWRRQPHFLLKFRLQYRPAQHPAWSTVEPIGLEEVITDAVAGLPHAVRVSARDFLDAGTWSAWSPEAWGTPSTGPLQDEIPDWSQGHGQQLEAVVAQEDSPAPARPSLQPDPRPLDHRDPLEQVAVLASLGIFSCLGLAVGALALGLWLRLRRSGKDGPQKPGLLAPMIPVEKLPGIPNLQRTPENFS

T2: murine high affinity IL-11 receptor complex (IL-11Rα with gp130) on 7TD1 cells (Class 2 sites) (mouse, UniProt Q64385 24-432; Q00560 23-917)
T2 sequence (looked up) 1: T1 sequence (looked up)
T2 sequence (looked up) 2: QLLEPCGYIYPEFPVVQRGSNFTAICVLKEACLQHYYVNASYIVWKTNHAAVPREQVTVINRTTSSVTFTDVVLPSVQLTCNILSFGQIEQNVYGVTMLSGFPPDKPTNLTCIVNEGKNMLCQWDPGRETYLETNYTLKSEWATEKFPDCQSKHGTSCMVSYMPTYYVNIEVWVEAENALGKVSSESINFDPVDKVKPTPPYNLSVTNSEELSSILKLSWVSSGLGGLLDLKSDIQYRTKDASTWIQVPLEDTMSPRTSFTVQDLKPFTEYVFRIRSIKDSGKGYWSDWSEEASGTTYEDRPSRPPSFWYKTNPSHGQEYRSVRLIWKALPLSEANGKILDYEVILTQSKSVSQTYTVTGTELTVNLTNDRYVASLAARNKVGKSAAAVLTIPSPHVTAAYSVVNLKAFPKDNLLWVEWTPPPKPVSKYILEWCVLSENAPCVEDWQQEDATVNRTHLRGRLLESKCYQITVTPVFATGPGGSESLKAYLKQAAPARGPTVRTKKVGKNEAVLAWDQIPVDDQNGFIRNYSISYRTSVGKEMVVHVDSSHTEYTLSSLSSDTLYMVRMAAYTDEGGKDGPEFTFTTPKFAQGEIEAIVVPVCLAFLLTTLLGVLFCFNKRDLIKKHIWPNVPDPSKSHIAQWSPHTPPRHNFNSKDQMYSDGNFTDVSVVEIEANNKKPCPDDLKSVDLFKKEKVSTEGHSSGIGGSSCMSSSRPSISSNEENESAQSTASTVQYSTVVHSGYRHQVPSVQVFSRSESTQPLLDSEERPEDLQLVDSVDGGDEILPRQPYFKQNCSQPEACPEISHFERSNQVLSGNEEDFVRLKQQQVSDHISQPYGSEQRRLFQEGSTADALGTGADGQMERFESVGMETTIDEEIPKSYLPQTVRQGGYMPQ

T3: human IL-11 receptor (human IL-11Rα and human gp130) on B13Rα1 cells (human, UniProt Q14626 23-422; P40189 23-918)
T3 construct: whole, on cells; also called Ba/F3 cells stably transfected with human gp130 and hIL-11Rα; Ba/F3 cells co-transfected with human IL-11Rα and human gp130
T3 sequence (looked up) 1: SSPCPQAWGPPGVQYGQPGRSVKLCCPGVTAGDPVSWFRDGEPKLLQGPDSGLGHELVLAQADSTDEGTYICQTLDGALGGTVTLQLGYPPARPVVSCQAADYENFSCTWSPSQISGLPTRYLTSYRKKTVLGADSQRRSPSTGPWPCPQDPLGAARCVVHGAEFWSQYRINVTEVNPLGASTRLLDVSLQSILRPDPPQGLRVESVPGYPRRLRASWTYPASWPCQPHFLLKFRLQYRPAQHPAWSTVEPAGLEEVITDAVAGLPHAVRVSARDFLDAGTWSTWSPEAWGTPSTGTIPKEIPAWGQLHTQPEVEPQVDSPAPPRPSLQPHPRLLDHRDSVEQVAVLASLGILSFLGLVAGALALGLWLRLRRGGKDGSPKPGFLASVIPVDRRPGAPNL
T3 sequence (looked up) 2: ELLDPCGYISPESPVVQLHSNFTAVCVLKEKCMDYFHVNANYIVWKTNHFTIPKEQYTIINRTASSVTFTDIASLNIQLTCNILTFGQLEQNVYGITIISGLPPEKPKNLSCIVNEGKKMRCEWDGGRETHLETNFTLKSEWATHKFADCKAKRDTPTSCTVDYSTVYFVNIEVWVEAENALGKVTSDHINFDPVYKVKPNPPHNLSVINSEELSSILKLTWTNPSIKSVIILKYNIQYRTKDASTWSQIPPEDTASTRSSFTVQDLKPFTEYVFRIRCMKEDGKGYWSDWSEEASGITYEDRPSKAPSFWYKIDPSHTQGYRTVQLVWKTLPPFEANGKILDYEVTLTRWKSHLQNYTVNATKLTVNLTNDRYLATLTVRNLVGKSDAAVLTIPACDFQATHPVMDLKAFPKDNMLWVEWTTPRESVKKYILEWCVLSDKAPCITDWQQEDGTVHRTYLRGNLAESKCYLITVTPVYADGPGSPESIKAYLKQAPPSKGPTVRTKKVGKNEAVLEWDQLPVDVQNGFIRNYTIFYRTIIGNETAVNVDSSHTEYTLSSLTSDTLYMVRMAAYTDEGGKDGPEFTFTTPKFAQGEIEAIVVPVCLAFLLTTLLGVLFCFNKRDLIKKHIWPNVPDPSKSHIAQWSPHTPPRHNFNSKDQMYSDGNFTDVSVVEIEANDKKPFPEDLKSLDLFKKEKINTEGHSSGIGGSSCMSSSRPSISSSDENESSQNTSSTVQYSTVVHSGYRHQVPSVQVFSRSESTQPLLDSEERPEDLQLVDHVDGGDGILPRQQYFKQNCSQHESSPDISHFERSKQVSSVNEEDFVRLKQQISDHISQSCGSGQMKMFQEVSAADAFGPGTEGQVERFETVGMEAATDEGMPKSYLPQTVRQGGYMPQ

B1: FPΔIL-11 (parental, non-mutated recombinant human IL-11 with Flag tag and phosphorylation site, deleted of the first 31 N-terminal amino acids) (ligand)
chain: MDYKDDDDKEGRRASVASPDPRAELDSTVLLTRSLLADTRQLAAQLRDKFPADGDHNLDSLPTLAMSAGALGALQLPGVLTRLRADLLSYLRHVQWLRRAGGSSLKTLEPELGTLQARLDRLLRRLQLLMSRLALPQPPPDPPAPPLAPPSSAWGGIRAAHAILGGLHLTLDWAVRGLLLLKTRL
notes: Produced in E. coli BL21(DE3); monomer by gel filtration; in SPR it was unlabelled; also called parental FPΔIL-11; parent IL-11
B2: H/V-D/A mutein (FPΔIL-11 with H182V and D186A) (ligand)
chain: B1 chain with H168V, D172A
notes: in SPR it was unlabelled; also called H182V+D186A; mutant FPΔIL-11
B3: commercial recombinant human IL-11 (rhIL-11, R&D) (ligand)
chain: PGPPPGPPRVSPDPRAELDSTVLLTRSLLADTRQLAAQLRDKFPADGDHNLDSLPTLAMSAGALGALQLPGVLTRLRADLLSYLRHVQWLRRAGGSSLKTLEPELGTLQARLDRLLRRLQLLMSRLALPQPPPDPPAPPLAPPSSAWGGIRAAHAILGGLHLTLDWAVRGLLLLKTRL

Experiments:
[1] = target: T1, murine IL-11Rα on 7TD1 cells (Class 1, …); assay: Scatchard analysis, 32P-labelled ligand on 7TD1 cells, Class 1 sites; unlabelled competitor FPΔIL-11
Procedure: (§1) Binding of ³²P-H/V-D/A on 7TD1 cells was carried out as described for the parental ³²P-FPΔIL-11 on B13Rα1 cells by Wang et al [Wang et al. (2002), cited supra, and incorporated by reference]. 7TD1 cells ([…]) were pre-incubated in culture medium lacking growth factor for 2 h and were washed 3 times with phosphate-buffered saline, pH 7.4 (PBS). For binding studies, radiolabelled H/V-D/A was added to cells at the indicated concentration in PBS containing 0.5% bovine serum albumin. The mixture was incubated at 4° C. for the appropriate time and bound radiolabelled H/V-D/A was separated from the free radioactivity by centrifugation at 3000 g for 1 min through a 0.2 ml layer of a mixture of 40% dioctyl phthalate and 60% dibutyl phthalate (Janssen Chimica, Beerse, Belgium). After quick freezing, the tip of each tube containing the cell pellet was cut-off and radioactivity was counted in a Beckman β-counter. Non-specific binding was determined by incubating cells with radiolabelled H/V-D/A in the presence of a 200-fold molar excess of unlabelled H/V-D/A. […]

[2] = target: T2, murine high affinity IL-11 receptor …; assay: cell-based or functional assay
[3] = target: T2, murine high affinity IL-11 receptor …; assay: Scatchard analysis, 32P-labelled ligand on 7TD1 cells, Class 2 sites; unlabelled competitor FPΔIL-11
Procedure: as §1

[4] = target: T3, human IL-11 receptor (human IL-11Rα and …); assay: Scatchard analysis, 32P-labelled ligand on B13Rα1 cells; unlabelled competitor H/V-D/A
[5] = target: T4, fusion protein of human IL-11R and IL-2 (IL-11R-IL-2) (human, UniProt Q14626 23-370; P60568 21-153, limits assumed); assay: SPR (BiaCore 2000), IL-11R-IL-2 amine-coupled to a CM5 chip
T4 construct: Amine-coupled to a CM5 chip at about 500 RU; also called human IL-11Rα-IL-2 fusion protein; recombinant human IL-11R-IL-2
Procedure: (§2) These experiments were performed with a BiaCore 2000 optical biosensor (BiaCore, Uppsala, Sweden). A fusion protein of human IL-11R and IL-2 (IL-11R-IL-2) [Blanc et al. (2000). Monoclonal antibodies against the human interleukin-11 receptor alpha-chain (IL-11Ralpha) and their use in studies of human mononuclear cells. J. Immunol. Methods 241, 43-59, the content of which is herein incorporated by reference] was coupled through primary amino groups to a carboxymethyl dextran flow cell (CM5) at a low immobilisation level (about 500 RU per flow cell) compatible with kinetic binding studies. Subsequent binding of parental FPΔIL-11 or mutein was carried out in Hepes-buffered saline (pH 7.4) at a flow rate of 10 μl/minute at room temperature.
(§3) In order to find out if mutagenesis and associated conformational change of H/V-D/A have an effect on its interaction with IL-11Rα, the association and dissociation kinetic constants (kₒₙ, koff) describing parent IL-11 and H/V-D/A mutein binding to human IL-11Rα were determined by surface plasmon resonance biosensor analysis using dextran-immobilized purified human IL-11Rα-IL-2 [Blanc et al. (2000), cited supra] fusion protein as matrix.

[6] = target: T3, human IL-11 receptor (human IL-11Rα and …); assay: Scatchard analysis, 32P-labelled ligand on B13Rα1 cells; unlabelled competitor FPΔIL-11
[7] = target: T1, murine IL-11Rα on 7TD1 cells (Class 1, …); assay: Scatchard analysis, 32P-labelled ligand on 7TD1 cells, Class 1 sites; unlabelled competitor H/V-D/A
Procedure: as §1

[8] = target: T4, fusion protein of human IL-11R and IL-2 …; assay: SPR, immobilized human IL-11Rα-IL-2
Procedure: as §2, §3

[9] = target: T1, murine IL-11Rα on 7TD1 cells (Class 1, …); assay: Scatchard analysis, 32P-labelled ligand on 7TD1 cells, low affinity sites
Procedure: as §1

[10] = target: T2, murine high affinity IL-11 receptor …; assay: Scatchard analysis, 32P-labelled ligand on 7TD1 cells, Class 2 sites; unlabelled competitor H/V-D/A
Procedure: as §1

Binder | Kd [1] | concentration required to induce half-maximal proliferation (EC50) of 7TD1 cells [2] | Kd [3] | Kd [4] | Kd [5] | koff [5] | kon [5] | Kd [6] | Kd [7] | fold lower EC50 of 7TD1 proliferation than wild-type IL-11 [2] | fold higher koff than parental FPΔIL-11 [8] | fold higher kon than parental FPΔIL-11 [8] | fold lower Kd than FPΔIL-11 [8] | fold higher affinity than FPΔIL-11 [9] | Kd [10]
B1 | 7.2 nM | 15 ng/mL | 0.65 nM | 0.4 nM | 165 nM | 0.000975 s⁻¹ | 5900 M⁻¹ s⁻¹ | 0.44 nM | – | – | – | – | – | – | –
B2 | – | 0.03 ng/mL | – | 0.71 nM | – | – | – | 0.72 nM | 2.7 nM | 400 fold | 14 fold | 35 fold | 3 fold | ~3 fold | 0.6 nM
B3 | – | 15 ng/mL | – | – | – | – | – | – | – | – | – | – | – | – | –
